In assay [1] the target is full-length FLAG-tagged human TSLPR and full-length HA-tagged human IL-7Ralpha co-expressed on HEK293T cells (human) (UniProt Q9HC73). Description: cell-based or functional assay.
The target of assay [2] is T1, C-terminally biotinylated human TSLP_R127A_R130S (pHL-TSLP_R127A_R130S-AVITAG construct) (human, UniProt Q969D9 29-159, specific C-terminal in vivo biotinylation on the AVITAG).
T1 construct: Made in HEK293T cells with BirA co-transfection; immobilised on streptavidin biosensors for BLI; also called biotinylated TSLP; not shown: C-terminal AVITAG (and purification tag) of the pHL-AVITAG vector
T1 sequence (Q969D9 29-159 R127A/R130S limits assumed): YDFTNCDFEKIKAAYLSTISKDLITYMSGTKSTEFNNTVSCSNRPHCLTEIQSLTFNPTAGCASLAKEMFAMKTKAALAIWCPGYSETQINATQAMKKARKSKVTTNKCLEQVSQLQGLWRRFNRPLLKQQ
Kind of assay: biolayer interferometry (Octet RED96), biotinylated TSLP on streptavidin biosensors, 1:1 model, average of three replicates.

The target of assay [3] is T1, C-terminally biotinylated human …. Kind of assay: biolayer interferometry (Octet RED96), biotinylated TSLP on streptavidin biosensors, 1:1 model.
Experimental: All BLI experiments were performed in PBS buffer supplemented with 0.01% (w/v) BSA and 0.002% (v/v) Tween 20, with an Octet RED96 instrument (ForteBio), operating at 25° C.
All data were fitted with the FortéBio Data Analysis 9.0.0.4 software using a 1:1 ligand model. The reported values for the fitted parameters represent the average (and standard deviation) from three replicate measurements.

From patent publication US20190127440A1 (VIB VZW, published 2019) come the findings set out here.

Chain of full-length FLAG-tagged human TSLPR and full-length HA-tagged human IL-7Ralpha co-expressed on HEK293T cells (human) (Q9HC73 23-371, chain 1 of 2): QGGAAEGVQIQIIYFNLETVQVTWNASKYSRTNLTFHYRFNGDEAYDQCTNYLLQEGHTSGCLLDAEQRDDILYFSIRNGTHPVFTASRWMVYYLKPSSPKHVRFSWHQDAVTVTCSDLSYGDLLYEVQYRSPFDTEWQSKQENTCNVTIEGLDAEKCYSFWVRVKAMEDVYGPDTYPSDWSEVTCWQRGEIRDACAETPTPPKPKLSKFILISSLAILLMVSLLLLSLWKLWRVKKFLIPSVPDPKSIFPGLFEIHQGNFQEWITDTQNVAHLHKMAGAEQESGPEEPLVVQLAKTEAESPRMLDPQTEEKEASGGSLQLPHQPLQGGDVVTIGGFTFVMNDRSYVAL
Chain of full-length FLAG-tagged human TSLPR and full-length HA-tagged human IL-7Ralpha co-expressed on HEK293T cells (human) (P16871 21-459, chain 2 of 2, further chain): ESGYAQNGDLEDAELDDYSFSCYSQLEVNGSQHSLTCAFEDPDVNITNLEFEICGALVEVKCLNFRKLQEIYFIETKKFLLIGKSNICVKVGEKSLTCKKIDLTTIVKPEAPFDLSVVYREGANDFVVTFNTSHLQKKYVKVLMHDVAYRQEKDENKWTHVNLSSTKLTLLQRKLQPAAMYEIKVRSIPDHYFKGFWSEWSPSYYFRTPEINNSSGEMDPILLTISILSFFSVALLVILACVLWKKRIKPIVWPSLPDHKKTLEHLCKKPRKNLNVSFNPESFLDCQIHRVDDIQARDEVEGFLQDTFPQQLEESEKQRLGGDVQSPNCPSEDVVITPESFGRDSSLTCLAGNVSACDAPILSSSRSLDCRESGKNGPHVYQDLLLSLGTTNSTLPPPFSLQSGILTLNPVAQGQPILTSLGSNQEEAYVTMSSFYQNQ

In the case of “human TSLP_R127A_R130S, mammalian-cell derived recombinant, C-terminal His-tag (from UniProt Q969D9 29-159) (ligand)”, the STAT5-dependent luciferase activity in HEK293T cells transfected with full-length TSLPR and IL-7Ralpha in assay [1] is 9 pM.

B1: human TSLP-trap1 (designed binder)
chain: GAAEGVQIQIIYFNLETVQVTWNASKYSRTNLTFHYRFNGDEAYDQCTNYLLQEGHTSGCLLDAEQRDDILYFSIRNGTHPVFTASRWMVYYLKPSSPKHVRFSWHQDAVTVTCSDLSYGDLLYEVQYRSPFDTEWQSKQENTCNVTIEGLDAEKCYSFWVRVKAMEDVYGPDTYPSDWSEVTCWQRGEIRDACAETPTPPKPKLSKSRGGSGGSGGSGGSGGSGGSGGSGGSGGSGGSGGSGGSGGSGGSGGSGGSGGSGGSGGSGGSLQESGYAQNGDLEDAELDDYSFSCYSQLEVNGSQHSLTCAFEDPDVNTTNLEFEICGALVEVKCLNFRKLQEIYFIETKKFLLIGKSNICVKVGEKSLTCKKIDLTTIVKPEAPFDLSVIYREGANDFVVTFNTSHLQKKYVKVLMHDVAYRQEKDENKWTHVNLSSTKLTLLQRKLQPAAMYEIKVRSIPDHYFKGFWSEWSPSYYFRTPEINNSSGEMDGTKHHHHHH
notes: Monomeric single chain fusion protein; Produced in T-REx-293 cells
As for B1, in assay [2], the Kd was 120 pM and the kon is 140000 M⁻¹ s⁻¹. This molecule also came in with a koff in assay [3] of 1.72e-05 s⁻¹.

Broadly, the Kd is the equilibrium constant for the complex coming apart. The low end stands for a tighter complex, the high end for a looser complex. The term kon denotes a measure of how fast the partners come together. A low value points to slow association. By koff is commonly meant a measure of how fast the partners let go of each other. Low readings indicate a long-lived complex, high ones a short-lived complex.
